Numbering of substitutions follows the chain as printed. Values joined by “and” are separate entries in the source; they are usually repeats but may differ in a detail not shown here. Identical values can stand only once. Like-named read-outs stand apart in the source and are kept apart here. Values belong to the binder of their own block, whether it stands above or below them.
How the values were obtained:
[1] = target: T1, human IL-1α (human, UniProt P01583 113-271); experiment: cell-based or functional assay
T1 sequence (looked up): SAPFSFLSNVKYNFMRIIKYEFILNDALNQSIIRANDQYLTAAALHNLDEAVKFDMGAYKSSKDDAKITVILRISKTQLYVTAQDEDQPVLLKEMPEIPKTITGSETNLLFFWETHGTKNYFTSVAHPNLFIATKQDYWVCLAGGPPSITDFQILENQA

[2] = target: T1, human IL-1α; experiment: BIAcore kinetic analysis of the dAb
[3] = target: T1, human IL-1α; experiment: method not given
[4] = target: T1, human IL-1α; experiment: BIAcore, IL-1α coated chip, dAb flowed over
[5] = target: T1, human IL-1α; experiment: cell-based or functional assay; remark: listed apart in the source
[6] = target: T2, human IL-1β (human, UniProt P01584 117-269); experiment: cell-based or functional assay
[7] = target: T2, human IL-1β; experiment: cell-based or functional assay; remark: listed apart in the source
[8] = target: T1, human IL-1α; experiment: BIAcore kinetic analysis of the dAb; remark: listed apart in the source
[9] = target: T1, human IL-1α; experiment: cell-based or functional assay; remark: listed apart in the source
[10] = target: T2, human IL-1β; experiment: cell-based or functional assay; remark: listed apart in the source
[11] = target: T1, human IL-1α; experiment: Receptor Binding Assay, IgG; value beside the ABT1 clone
[12] = target: T2, human IL-1β; experiment: Receptor Binding Assay, IgG; value beside the ABT2 clone
[13] = target: T2, human IL-1β; experiment: cell-based or functional assay; remark: listed apart in the source
[14] = target: T1, human IL-1α; experiment: cell-based or functional assay; remark: listed apart in the source
[15] = target: T1, human IL-1α; experiment: BIAcore kinetic analysis of the dAb; remark: listed apart in the source
[16] = target: T1, human IL-1α; experiment: cell-based or functional assay; remark: listed apart in the source
[17] = target: T1, human IL-1α; experiment: cell-based or functional assay; remark: listed apart in the source
[18] = target: T1, human IL-1α; experiment: BIAcore kinetic analysis of the dAb; remark: listed apart in the source

B1: ABT1-96 (other)
VH: EVQLLESGGGLVQPGGSLRLSCAASGFTFNQYNMFWVRQAPGKGLEWVSVISGSGRFTYYADSVKGRFTISRDNSKNTLYLQMNSLRAEDTAVYYCAKGWWRRDPPFDYWGQGTLVTVSS
notes: dAb, VH, to IL-1α; also called dAb ABT1-96
MRC5 ND10 [1]: 3 nM
MRC5 ND50 [1]: 11 nM
Kd [2]: 1.1 nM
koff [2]: 0.00039 s⁻¹
kon [2]: 370000 M⁻¹ s⁻¹

B2: ABT1-95-2 (other)
VL: DIQMTQSPSSLSASVGDRVTITCRASQPIHGNLRWYQQKPGKAPKLLIYSSSYLQSGVPSRFSGSGSGTDFTLTISSLQPEDFATYYCQQGYRWPVTFGQGTKVEIK
notes: dAb, Vκ, to IL-1α
Kd [3]: 40 nM
Kd [4]: 32 to 42 nM

B4: ABT1-86 (other)
VH: EVQLLESGGGLVQPGGSLRLSCAASGFTFDRYIMAWVRQAPGKGLEWVSSITPSGAATYYADSVKGRFTISRDNSKNTLYLQMNSLRAEDTAVYYCAEEPADRYSTWTFDYWGQGTLVTVSS
notes: dAb, VH, to IL-1α
MRC5 ND10 [1]: < 200 nM
MRC5 ND50 [1]: 900 nM
Kd [8]: 110 nM
koff [8]: 0.09 s⁻¹
kon [8]: 820000 M⁻¹ s⁻¹

B8: ABT2-65-166/ABT1-95-A3 huIgG1/K wt (bispecific antibody, V domains shown)
VH: EVQLLESGGGLVQPGGSLRLSCAASGFTFEDYQMGWVRQAPGKGLEWVSSISAMGGRTYYADSVKGRFTISRDNSKNTLYLQMNSLRAEDTAVYYCAQNLVRLGRSRWMFDYWGQGTLVTVSS
VL: DIQMTQSPSSLSASVGDRVTITCRASKPGVRNMRWYQQKPGKAPKLLIYSVSYLEPGVPSRFSGSGSGTDFTLTISSLQPEDFATYHCLQGYRWPPTFGQGTKVEIKR
notes: hu IgG1/K wt; also called 1-95-A3 / 2-65-166
IL-1α IC50 [5]: 0.026 nM and 0.0178 nM
IL-1β IC50 [6]: 0.17 nM
MRC5 IL-1α [9]: 0.017 nM
MRC5 IL-1β [10]: 0.15 nM
IC50 [11]: 0.083 nM
IC50 [12]: 0.709 nM

B9: ABT2-65-17 (other)
VH: B8 VH with A23V, G56N, N74D
MRC5 ND50 [13]: 2 nM

B10: ABT2-65-166 (other)
VH: B8 VH
MRC5 ND50 [13]: 4 nM

B13: ABT1-141-25 (other)
VL: DIQMTQSPSSLSASVGDRVTITCRASQWIQKQLAWYQQKPGKAPKLLIYSSSYLQSGVPSRFSGSGSGTDFTLTISSLQPEDFATYYCQQHLRVPMTFGQGTKVEIKR
MRC5 ND50 [14]: 5 nM

B14: ABT1-141-47 (other)
VL: B13 VL with S26N, Y53H, E81Q
MRC5 ND50 [14]: 1 nM

B15: ABT1-141-76 (other)
VL: B13 VL with S26N, Y53H
MRC5 ND50 [14]: 1 nM

B16: ABT1-95 (other)
VL: DIQMTQSPSSLSASVGDRVTITCRASQPIHGNLRWYQQKPGKAPKLLIYNISNLQSGVPSRFSGSGSGTDFTLTISSLQPEDFATYYCQQGYRWPVTFGQGTKVEIKR
notes: dAb, Vκ, to IL-1α; also called dAb ABT1-95
MRC5 ND10 [1]: 150 nM
MRC5 ND50 [1]: 700 nM
Kd [3]: 200 nM
Kd [15]: 45 nM
koff [15]: 0.022 s⁻¹
kon [15]: 490000 M⁻¹ s⁻¹

B18: ABT1-95-1 (other)
chain: B16 VL with Y87H
Kd [3]: 40 nM
Kd [4]: 20 to 42 nM

B20: ABT1-6-23 (other)
VH: EVQLLESGGGLVQPGGSLRLSCAASGFTFVRYDMAWVRQAPGKGLEWVSSIYKSGALTSYADSVKGRFTISRDNSKNTLYLQMNSLRAEDTAVYYCAKGWASFDYWGQGTLVTVSS
notes: dAb, VH, to IL-1α; also called dAb ABT1-6-23
MRC5 ND10 [1]: 3 nM
MRC5 ND50 [1]: 30 nM
MRC5 ND50 [17]: 0.03 µM
Kd [18]: 61 nM
koff [18]: 0.012 s⁻¹
kon [18]: 200000 M⁻¹ s⁻¹

B21: ABT1-6 (other)
VH: B20 VH with V30G, R31A, A35Q, Y52N
MRC5 ND50 [17]: 15 µM

B22: ABT1-6-15 (other)
VH: B20 VH with Y52N
MRC5 ND50 [17]: 2 µM

B23: ABT1-6-3 (other)
VH: B20 VH with V30G, R31A, A35Q
MRC5 ND50 [17]: 0.08 µM

Second part, the binder after the results:

IL-1α IC50 [5]: 150 nM
IL-1β IC50 [6]: 0.05 nM
MRC-5 IL-1β neutralization potency [7]: ~0.05 nM
B3: ABT2-108-620x/ABT1-122 huIgG1/K wt (bispecific antibody, V domains shown)
VH: EVQLLESGGGLVQPGGSLRLSCAASGFTFAEESWMWVRQAPGKGLEWVSRIGQDGKNTYYREDVKGRFTISRDNSKNTLYLQMNSLRAEDTAVYYCAKYTGRIMGHHLFDYWGQGTLVTVSS
VL: DIQMTQSPSSLSASVGDRVTITCRASQPIWTELNWYQQKPGKAPKLLIYGSSSLQSGVPRFSGSGSGTDFTLTISSLQPEDFATYYCQQFAYFPATFGQGTKVEIKR

IL-1α IC50 [5]: 40 nM
IL-1β IC50 [6]: 8 nM
MRC-5 IL-1β neutralization potency [7]: ~8 nM
MRC5 IL-1α [9]: 80 nM
MRC5 IL-1β [10]: 8 nM
B5: ABT2-108/ABT1-122-511 hu IgG1/K wt (bispecific antibody, V domains shown)
VH: EVQLLESGGGLVQPGGSLRLSCAASGFTFAEYTMMWVRQAPGKGLEWVSRIGQDGKNTYYADSVKGRFTISRDNSKNTLYLQMNSLRAEDTAVYYCAKYTGRVGVHHLFDYWGQGTLVTSS
VL: DIQMTQSPSSLSASVGDRVTITCRASQPIWTELNWYQQKPGKAPKLLIYGSSSLQRGVPSRFSGSGSGTDFTLTISSLQPEDFATYYCKQFAYFPATFGQGTKVEIKR

IL-1β IC50 [6]: 0.01 nM and 0.02 nM and 0.03 nM
MRC-5 IL-1β neutralization potency [7]: ~0.03 nM
B6: ABT2-108-620x/ABT1-122-511 huIgG1/K wt (bispecific antibody, V domains shown)
VH: B3 VH
VL: B5 VL

IL-1β IC50 [6]: 15 nM and 20 nM and 40 nM
MRC-5 IL-1β neutralization potency [7]: ~15 nM
B7: ABT2-108/ABT1-122 hu IgG1/K wt (bispecific antibody, V domains shown)
VH: B5 VH
VL: B3 VL

IL-1β IC50 [6]: 0.32 nM
MRC5 IL-1α [9]: 0.019 nM
MRC5 IL-1β [10]: 0.207 nM
IC50 [11]: 0.108 nM
IC50 [12]: 0.537 nM
B11: ABT2-65-166/ABT1-95-A6 hu IgG1/K wt (bispecific antibody, V domains shown)
VH: B8 VH
VL: B8 VL with S50A, V51K, L89K, P96V, T97Q
notes: hu IgG1/K wt; also called 1-95-A6 / 2-65-166

MRC5 IL-1α [9]: 0.08 nM
MRC5 IL-1β [10]: 0.121 nM
IC50 [11]: 0.067 nM
IC50 [12]: 0.073 nM
B12: IgG pairing ABT1-95-A2 with ABT2-65-166 (bispecific antibody, V domains shown)
VH: B8 VH
VL: B8 VL with A25I, S26L, K27Q, G29P, V30G, M33L, V51K, Y53F, L89Q, P96V
notes: IgG; also called 1-95-A2 / 2-65-166

MRC-5 IL-1a inhibition assay EC50 [16]: 5.07 nM
IL-1α IC50 [5]: 5 nM
IL-1β IC50 [6]: 0.04 nM
B17: ABT2-108-620x/ABT1-95-15 huIgG1/K wt (bispecific antibody, V domains shown)
VH: B3 VH
VL: B8 VL with K27Q, G29I, M33L, V51S, L89Q, P96V

MRC5 IL-1α [9]: 8 nM
MRC5 IL-1β [10]: 0.042 nM
IC50 [11]: 0.54 nM
IC50 [12]: 0.071 nM
B19: ABT2-108-538x/ABT1-95-15 huIgG1/K wt (bispecific antibody, V domains shown)
VH: B3 VH with E31D, S33G, W34M, G52T, Q53Y, D54S, R61A, E62D, D63S, M104L
VL: B8 VL with K27Q, G29I, M33L, V51S, L89Q, P96V
notes: hu IgG1/K wt
